From a protein production outcome set (Wang et al. 2014)

Assay: label from the status in PepcDB records

## MNPKHSCTNFGADIPVNSQLIVTTSELRQKLKEKNKFILVDNRTWDEHIGKVSGYTYYDKKGRIPGALYGHSGSDSVSLEEYRNIDNTMRNKYEILEMWDKENIDVNKQLIFMCGSGWRAAEVLTYANVIGVENTSLYSDGWMGWSLDNSNLIEVGEHKLEHHHHHH
  protein production: failed

## MLAQQIVGIFLMTTGTLFVFVAGLGVLRLPDVYMRLHASTKAGTLGVALNAAGLVVFHPDLGIFTRAFALVLFLLLTAPVAAHMIGRASYFAREEMGVSIWDGTVVDRMLDHRGEALFSTGAPEDGADASGSPS
  protein production: failed

## MSLPPILTSQIGPDSIELRLLVAADLEYFNGHFPEQAVLPGVTQLDWAVRLGCEHFGYSAAVANLEVLKFQQLILPGQEVTLVISHNATKEKLTFAYSDGDHRYASGRISFASKQDDGLEHHHHHH
  protein production: failed

## MKLAASLNRLSPKRLFRTKSKASVSRSEPSSFSSNASSSSSDGSYGNLKQGPTATPISVLPQNSGDFYTELVQAFKLIDRDDDGVVSRGDLAALISRLSHEPPSQEEVSLMLREVDGGDGGCISLEDLASRVAGTSGEGSVETEELREVFEIFDVDRNGKISAEELHRVFGVIGDERCTLEECMRMIATVDGNGDGFVCFDDFCRMMVPAMNDHHH
  protein production: failed

## MADSKKITFEMNESVLTAQFSRLDEMASVVERRFSELKMTIEDVGNADPGSKITESLGGLQSGLGTISSAFGQLGSSSEAITSGFGTAVGSVGGITDAFKNLGSSVQNGTLFSSLSTGIGGMSTMLGGVTGGVQGITNLASGFMELKNHLGGLMSSIGGVGGIMGKLTSPMGLVIIGIVALVAAFTYLMTTNESFRNTVMSVVTQVAQLFGQLVASLMPIIMQIITAVMQIGAALMPIVMQFISFFAQLLAQLMPFINMLIAMLMPVIMQIVQVVMSLVSALLPSIMTVIQGIMSVIQFLIPIIMKIATVVVQIVVTIISYISKIMPIVMMIIGVIISIITTIISYIVVIATTISNVIGKIISFIASVITSIIGIVQPIIGFITNIFSSIVTVIGAAFQMVFAVASKIWNAIMATISGIIDGIKSVITGISTTVSSVFNGVKRIITGVFDGIKGAWGGLTEFVGTIFDGVSNAIQTVVDNVKGFVNVVIRGINSAISLINKIPGVEIGKIPQLISGTTNFQGGFARMNEGGRGEMVVLPSGSQVIPHDATMKYARESARGNKSMLYTNQGTDLARVENLLERLLQKNPVIKMDDKVVSEVVSRNQANSFDQYNYTMGGAAYS
  protein production: failed

## MSPQSMLTSPQHPRRTTMVISHGTLSASAEHAAHLRQLLVHIAQATRQEDGCLLYLVSEDLSQPGHFLITEHWDNLGAMHTHLALPGVTQAIDALKHLNVTDLKITAYEAGEAINIMG
  protein production: not failed

## MSDCLFDLHIGYVRFKNPIALAPMAGIVDSAFANQYASNAGLVILGAFNLDKASIAVASALVARGRKEFISDEPMEFMKKEIRAVTSGSAVAVNVRSTTLEPLIEAAKIVKEEGAILELNAHCRQPEMLEAGLGEALLHDLPKLSAWIRAIKETGVVLSVKVRANVVNDIELARLIDKAGADIIHVDAEMEGFGADLDAILNYRDATRLFLIGNNSVKDFEAAKEMFTRGADMVSAARGVLENSGLIQELVENVTSYQQSIGWYNAPKHVCSEGDFRGLAFCCLPVKPCPVHEKFQKLGYTAEEFARTKLDFAKGTMLEYGEDTCFGSLVWCCKITKPCWIRDGVLNTIGLSDTEYMKLKKQLAEYVLDHARIPVNESQ
  protein production: failed

## MDESVKSLMLPPPPPLLPPSQGYGSRKIDGDSITNKQIKKFWRQKQIIEEDHLYSAIKAAARVRARNLSDEDYKRFEESLDMEDLETEDHQGLKDWWTKSKYAYLNQPALGSADSLKRKRFSTYTPNCFSFKPCNPLYATSLNVF
  protein production: failed

## MSLQRFTNRTIVVAGAGRDIGRACAIRFAQEGANVVLTYNGAAEGAATAVAEIEKLGRSALAIKADLTNAAEVEAAISAAADKFGEIHGLVHVAGGLIARKTIAEMDEAFWHQVLDVNLTSLFLTAKTALPKMAKGGAIVTFSSQAGRDGGGPGALAYATSKGAVMTFTRGLAKEVGPKIRVNAVCPGMISTTFHDTFTKPEVRERVAGATSLKREGSSEDVAGLVAFLASDDAAYVTGACYDINGGVLFSEGHHHHHH
  protein production: not failed

## MLAFNLLRSAHMLNPALQVLAKDGSIADNTYQPIAEDGVIPAGDVVMTTAQLDQLTAIQGKKALYITVNDSPETHQFPLDQLDAIFIEFAGFNDGRGYSFAALLRRQGYQGELRAVGDIFKDVLNYLKRSGFDTFVIKEGKDIQEAAAGLNDFRQPYQASTAVPQADYQTGA
  protein production: failed

## MKHLPTTLLLSTLAITLSAQAHNLVPAPKQTQSVLIKNATVHTVIQGVLTNTDVLIENGKISALGPQLSTNTTASTQVVDASGKHLYPGLIALDTSLGLVEIEMVRPTVDNAEVGDVNPQISAASAYNPDSELLPTIRYNGITHAQIVPSGDGLAGQSVVVDLDAWTIEDALQPNEGQFHVYWPQIKRMPEDEKEKAKAIEKNQQAIDKLITAFEDGYRYFLSQNAQDTDNWPNLRWQAMLPLYQGKATLFAHADSVSQIEQVIALTKKYQFKLVIVGGYDAWRLASSLREVNASVIYPHTLSLPKRKDEPVDLPFKIPSLLANAGIPYALGFSSDWNSRNLPYAAGYSAAYGVTPEQALKSVTLDAAKLLGIADLGAIAVGYQGSVVLSDGDILDPMSSKIDAIWIEGRQIDLNNRHQQLYQKYLKR
  protein production: failed

## MKNQLIDRLTRYTTIDTQSDPKSTTTPSTEKQWDLLHLLEKELQQLGLPTDLDENGYLFATLESNIDVDVPTVGFLAHVDTSPDFNASNVKPQIIENYDGKPYKLGNTKRVLDPKVFPELNSLVGHTLMVTDGTSLLGADDKAGIVEIMEAICYLQEHPEIKHGTIRIGFTPDEEIGRGPHKFDVDRFNADFAYTMDGSQYGELQYESFNAAEAVITCHGVNVHPGSAKNAMVNAIRLGEQFDSLLPDSEVPERTEGYEGFYHLMNFEGTVEKATLQYIIRDHDKKQFELRKKRILEIRDDINAHFENYPVKVDISDQYFNMAEKILPLPHIIDIPKRVFAKLDIPANTEPIRGGTDGSQLSFMGLPTPNIFTGCGNFHGPYEYASIDVMEKAVQVIIGIVEDIAENH
  protein production: failed

## MMNTKVALKQLMATHFITVDVPCPECGGAMTAWKEPTPDTPPRCPPVCMECGYRSVKKKEATTAKNLYESSLIKKAKDYFLNGSVLTDRKSLHKKISNYYPSNQESTKAKNISMEFCEKTLLGEIHHLILTGGVGVGKSHLAIGCLNEILVKSNYSKKVLFVSYRELLEQLKFAMNDEEARKAITGVAMSEIKAADVVVLDDIGAELGDFNKRDEKGNLILSRASNFDIDTLTGILESRIDKPTIITSNLKSKEIKYCYGERIVSRMATHSNGFMHRFTNTKDYRLKTALEHHHHHH
  protein production: not failed

## MVKVIFFDLDDTLVDTSKLAEIARKNAIENMIRHGLPVDFETAYSELIELIKEYGSNFPYHFDYLLRRLDLPYNPKWISAGVIAYHNTKFAYLREVPGARKVLIRLKELGYELGIITDGNPVKQWEKILRLELDDFFEHVIISDFEGVKKPHPKIFKKALKAFNVKPEEALMVGDRLYSDIYGAKRVGMKTVWFRYGKHSERELEYRKYADYEIDNLESLLEVLARESSSNKKVHPPRQQI
  protein production: not failed

## MYPEKEYEELIKKIKTKVKEELNKNSKANVSGLNLDTAKRLADAAVKKAGEMGVNVAVAVMDIHGNMILFNRMDDSVLAAIEVAPKKAYTSAALRIPSSEVLKGGFDKLVETMEGKIAAFGGGLPVRSNGIFLGALGVSGGTSEEDIKIAEYAVNAVFG
  protein production: failed

## MADTSCKLKPLCFRFVSTLKSPIAVITVTYSPGKYLASFLDSLPGATSRDTHVVMADNGSVDGVPEQAAASRSNVEFLSTGGNLGYGTAINIAARSLRARREAGEIDGEFFLVSNPDVVFDEDSIDQLLECAKRHPEAGAVGPLIREADGSAYPSARAVPTLANGIGHALLGAVWKSNPWSAAYRDDEDMDTERTAGWLSGSCLLLRWDAFDRVGGFDERYFMYMEDVDLGDRLVRAGFTNVFCPSAQIIHAKGHVAGKNPENMLPAHHESAYRFQADRLAKPWQAPIRLALRIGLKLRAGVAVGVSKMRTKASLEHHHHHH
  protein production: failed

## STGKKPKHHVLSHDIIPASKPIAEKLQIQPESPVVELKRILYNDDQPLTFEVTHYPLDLFPGIDTFIADGVSMHDILKQQYKVVPTHNTKLLNVVYAQQEESKYLDCDIGDALFEIDKTAFTSNDQPIYCSLFLMHTNRVTFTINSPYT
  protein production: not failed

## GSGCPLLENVISKTINPQVSKTEYKELLQEFIDDNATTNAIDELKECFLNQTDETLSNVEVFMQLIYDSSLCDLF
  protein production: failed

## MKGFNIYTDESTLVSIGDDAGVYEHNGIIWVYTVDIITPVVNDPYLWGAISTANALSDVYAMGGIPVNALAISCFNNCELDIEIFREVIRGALDKLREAKTVLLGGHTIDDKEPKFGLSVAGICPEGKYITQSGAQVGQLLILTKPIGTGILIKGLKEGILKEEDINEAIENMLALNDKARNLMLSLDATACTDVTGFGLLGHAWNICKNSNIGARIFFEKVPYYQLSENLVKKKIYPKGAIENLNFVKNYLKSNLDNWKLILLSDPVTSGGLLFTINKEKLEKIDETAKELEVNYWIIGETIAENVLEVL
  protein production: not failed

## MVSEMLSEAGHSVSYLKGGMKAWSEHLEPVKVGDLKDGGEMYQFVRIGKGCLSYMVISNGEAAIIDATRMVNFFIDFAKGKGATITHVFDTHLHADHISGGRVIAEKTKATYWLPPKDAEEVEFDYQPLEEGNDIIIGNTTIKIQPIYSPGHTIGSTSFIVDDQYLLSGDILFIDSIGRPDLAGMAEDWVGDLRKTLYSRYKALSKDLIVLPAHFMIIDELNENGSVGKQLSTLFSENHGLNIADETEFRHLVTDHLPPQPNAYQEIRETNMGKISPDEEKQREMEIGPNRCAIRLEHHHHHH
  protein production: failed

## MCSSDSLQLHNVFVYGSFQDPDVINVMLDRTPEIVSATLPGFQRFRLKGRLYPCIVPSEKGEVHGKVLMGVTSDELENLDAVEGNEYERVTVGIVREDNSEKMAVKTYMWINKADPDMFGEWNFEEWKRLHKKKFIETFKKIMECKKKPQGQGNDDISHVLREDQ
  protein production: not failed

## MAGDQELELRFDVPLYTLAEASRYLVVPRATLATWADGYERRPANAPAVQGQPIITALPHPTGSHARLPFVGIAEAYVLNAFRRAGVPMQRIRPSLDWLIKNVGPHALASQDLCTDGAEVLWRFAERSGEGSPDDLVVRGLIVPRSGQYVFKEIVEHYLQQISFADDNLASMIRLPQYGDANVVLDPRRGYGQPVFDGSGVRVADVLGPLRAGATFQAVADDYGVTPDQLRDALDAIAA
  protein production: not failed

## MLDFNIEGLIPKNMEKRGELVLNEYLKEIEDVFNHRKIPENGIDDEKIKLFLKFLSMMDTDKDPKSVRIGEREARTYSKIHEELSSGFCHGIGRSGNLVDPQPKASGASIMYALTNKILESFFKQLGLNVHAIATPISTGMSISLCLSAARKKYGSNVVIYPYASHKSPIKAVSFVGMNMRLVETVLDGDRVYVPVEDIENAIKKEIELGNRPCVLSTLTFFPPRNSDDIVEIAKICENYDIPHIINGAYAIQNNYYLEKLKKAFKYRVDAVVSSSDKNLLTPIGGGLVYSTDAEFIKEISLSYPGRASATPVVNTLVSLLSMGSKNYLELVKNQKNSKKLLDELLNDLSKKTGGKFLDVESPIASCISVNSDPVEIAAKLYNLRVTGPRGIKKTDHFGNCYLGTYTHDYIVMNAAIGVRTEDIVNSVSKLEKILL
  protein production: failed

## MRNHPLGIYEKALAKDLSWPERLVLAKSCGFDFVEMSVDETDERLSRLEWTSAQRASLVSAMLESGVAIPSMCLSAHRRFPFGSRDEAVRQRAREIMTKAIRLARDLGIRTIQLAGYDVYYEEHDEGTRQRFAEGLAWAVEQAAAAQVMLAVEIMDTAFMNSISKWKKWDEMLSSPWFTVYPDVGNLSAWGNDVTAELKLGIDRIAAIHLKDTLPVTGDSPGQFRDVPFGEGCVDFVGIFKTLHELNYRGSFLIEMWTEKSSEPVLEIIQARRWIESRMQEGGFTC
  protein production: failed

## MVEGVHCVPDSVELMPKQHDIPRARLRIVVHEGRNHEVRELVKNAGLEVHSLKRVRIGGFRLPSDLGLGKHVELKQSELKALGWKN
  protein production: not failed
